Measured values as given in paper PMC6733452.

Experiments:
Experiment in all cases: cross-linking + ELISA
TcpP-K102E (V. cholerae) = TcpP-K102E (V. cholerae) (UniProt P29485)
TcpP-N99D (V. cholerae) = TcpP-N99D (V. cholerae) (UniProt P29485)
[1] = target: TcpP-HSV (wild-type, from pEK41) (V. cholerae) (UniProt P29485)

Substance	percent reduction in TcpP interaction relative to wild-type ToxR [1]	further results
ToxR (wild-type, expressed from the chromosomal toxR locus) (from UniProt P15795 1-294) (natural protein)		percent reduction in ToxR interaction relative to wild-type TcpP-HSV (TcpP-K102E (V. cholerae)): 50%; percent reduction in ToxR interaction relative to wild-type TcpP-HSV (TcpP-N99D (V. cholerae)): 50%
ToxR-L107A (chromosomally expressed) (from UniProt P15795 1-294) (natural protein)	70%	
ToxR-T91A (chromosomally expressed) (from UniProt P15795 1-294) (natural protein)	45%	
ToxR-V97A (chromosomally expressed) (from UniProt P15795 1-294) (natural protein)		percent defect in TcpP interaction relative to wild-type ToxR [1]: > 60%
ToxR-Y96A (chromosomally expressed) (from UniProt P15795 1-294) (natural protein)	40%	
